Assay [1] has as its target SORLA dimer of SORLA-V1 and SORLA-V2 with reconstituted Venus (human) (UniProt Q92673). In words: co-IP.
In assay [2] the target is PA-tagged SORLA VPS10p-domain (1 to 753), T659C mutant (human) (UniProt Q92673). Nature of the assay: cross-linking.

UniProt Q92673, sequence (Q92673 82-2214, chain 1 of 2): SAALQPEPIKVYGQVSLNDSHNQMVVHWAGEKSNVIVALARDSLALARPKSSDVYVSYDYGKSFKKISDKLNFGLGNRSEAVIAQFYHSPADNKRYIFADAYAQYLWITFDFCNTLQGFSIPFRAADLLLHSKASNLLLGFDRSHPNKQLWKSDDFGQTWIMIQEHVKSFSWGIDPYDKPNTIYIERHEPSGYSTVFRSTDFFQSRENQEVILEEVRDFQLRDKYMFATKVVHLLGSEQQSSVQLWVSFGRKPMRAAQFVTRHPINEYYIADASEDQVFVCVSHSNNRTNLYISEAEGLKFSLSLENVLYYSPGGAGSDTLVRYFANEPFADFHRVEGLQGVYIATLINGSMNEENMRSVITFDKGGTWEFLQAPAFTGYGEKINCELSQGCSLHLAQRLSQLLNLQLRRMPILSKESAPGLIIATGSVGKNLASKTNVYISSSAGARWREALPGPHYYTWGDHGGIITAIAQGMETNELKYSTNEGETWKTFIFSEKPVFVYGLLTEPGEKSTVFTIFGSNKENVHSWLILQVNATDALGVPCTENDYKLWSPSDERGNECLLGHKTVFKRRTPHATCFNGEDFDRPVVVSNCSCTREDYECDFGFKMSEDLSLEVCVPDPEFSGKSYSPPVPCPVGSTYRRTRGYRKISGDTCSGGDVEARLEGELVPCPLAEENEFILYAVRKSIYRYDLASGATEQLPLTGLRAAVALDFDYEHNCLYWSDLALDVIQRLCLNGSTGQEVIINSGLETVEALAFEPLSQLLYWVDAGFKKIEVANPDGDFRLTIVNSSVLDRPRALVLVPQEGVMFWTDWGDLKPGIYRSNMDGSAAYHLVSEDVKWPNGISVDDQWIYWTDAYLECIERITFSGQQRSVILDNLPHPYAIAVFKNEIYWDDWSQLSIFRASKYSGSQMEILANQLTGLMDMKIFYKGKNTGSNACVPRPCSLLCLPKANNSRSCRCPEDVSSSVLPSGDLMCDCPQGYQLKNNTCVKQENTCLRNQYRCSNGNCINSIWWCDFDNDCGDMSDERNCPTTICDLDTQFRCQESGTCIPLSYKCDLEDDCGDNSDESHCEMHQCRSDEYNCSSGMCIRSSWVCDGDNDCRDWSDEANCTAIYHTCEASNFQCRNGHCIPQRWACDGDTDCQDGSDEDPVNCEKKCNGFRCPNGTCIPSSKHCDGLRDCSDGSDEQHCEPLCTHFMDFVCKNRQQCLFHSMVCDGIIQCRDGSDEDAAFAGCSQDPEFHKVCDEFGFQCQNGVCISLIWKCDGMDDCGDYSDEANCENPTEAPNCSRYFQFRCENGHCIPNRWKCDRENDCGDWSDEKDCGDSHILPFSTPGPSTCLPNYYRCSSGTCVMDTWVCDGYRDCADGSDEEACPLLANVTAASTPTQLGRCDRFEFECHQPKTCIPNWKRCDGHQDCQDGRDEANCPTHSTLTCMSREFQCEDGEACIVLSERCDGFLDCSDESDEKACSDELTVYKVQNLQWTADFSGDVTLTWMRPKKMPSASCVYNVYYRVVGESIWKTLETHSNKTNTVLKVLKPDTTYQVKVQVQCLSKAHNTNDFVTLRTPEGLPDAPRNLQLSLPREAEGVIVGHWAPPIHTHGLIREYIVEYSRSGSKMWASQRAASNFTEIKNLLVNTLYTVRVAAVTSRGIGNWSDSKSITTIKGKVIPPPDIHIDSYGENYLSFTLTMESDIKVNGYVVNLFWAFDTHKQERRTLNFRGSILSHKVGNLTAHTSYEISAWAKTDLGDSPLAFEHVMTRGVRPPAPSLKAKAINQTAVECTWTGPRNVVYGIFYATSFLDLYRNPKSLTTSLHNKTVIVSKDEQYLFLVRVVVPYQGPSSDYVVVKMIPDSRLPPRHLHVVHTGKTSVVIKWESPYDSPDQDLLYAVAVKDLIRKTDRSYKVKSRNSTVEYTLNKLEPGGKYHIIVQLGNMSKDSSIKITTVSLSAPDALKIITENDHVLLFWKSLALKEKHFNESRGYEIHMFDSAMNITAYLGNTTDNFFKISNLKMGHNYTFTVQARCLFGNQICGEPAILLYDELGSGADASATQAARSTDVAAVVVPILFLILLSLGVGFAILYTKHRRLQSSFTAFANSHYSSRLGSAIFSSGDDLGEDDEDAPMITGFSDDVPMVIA
UniProt Q92673, sequence (Q92673 82-2214, chain 2 of 2): as the sequence (Q92673 82-2214, chain 1 of 2) above

On to “VPS26b subunit of retromer (from UniProt Q4G0F5 1-336) (natural protein)”, for which, in assay [1], the co-IP product relative to total input is 6%. For orientation: stoichiometry N means the number of molecules, sites or subunits per partner or assembly. “PA-tagged SORLA VPS10p-domain (1 to 753), T659C mutant (from UniProt Q92673 29-753) (domain or fragment)”: the stoichiometry N in assay [2] stood at 2.

The values are drawn from article PMC9942828.
